Experimental data from US20260167959A1, “APTAZYME-BASED REGULATABLE GENE EXPRESSION SYSTEMS” (REJUVENATE BIO INC, priority 2022, published 2026).

System: Renilla luciferase RNA
Assay: Barcoded aptazyme variant library screen: un-cleaved Renilla luciferase RNA by barcode read counts, HEK293-T cells
Format: cell-based
Details: un-cleaved Renilla luciferase RNA, HEK293-T cells cultured with 1 mM theophylline (ON) over without theophylline (OFF); barcode read counts, triplicate
How it was run: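 Barcode sequencing of cDNA versus DNA, normalized per aptazyme, gave the un-cleaved Renilla luciferase RNA fraction and fold-change with versus without theophylline (triplicates). Library: T3H48 ribozyme with one of seven theophylline aptamer variants inserted at each position, placed in the Renilla 3′ UTR of a dual-luciferase vector.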

Molecule | Fold change in RNA expression between the ON state and the OFF state [fold]
RA222 (nucleic acid, expressed or natural sequence) DNA: GCGCGTCCTGGATTCGCGGAAACGCGTACATCCAGCTGACAGAATACCAGCATCGTCTTGATGCCCTTGGAAGTCTGAGTCCCAAATAGGACGAAACGCGC | 1.2
RA223 (nucleic acid, expressed or natural sequence) DNA: GCGCGTCCTGCGAGAATACCAGCATCGTCTTGATGCCCTTGGAAGTCTCGGATTCGCGGAAACGCGTACATCCAGCTGACGAGTCCCAAATAGGACGAAACGCGC | 1.2
RA220 (nucleic acid, expressed or natural sequence) DNA: GCCGAGAATACCAGCATCGTCTTGATGCCCTTGGAAGTCTCGGCGTCCTGGATTCGCGGAAACGCGTACATCCAGCTGACGAGTCCCAAATAGGACGAAACGCGC | 1.2
RA218 (nucleic acid, expressed or natural sequence) DNA: GCGCGTCCTGGATTCGCGGAAACGCGTACATCCAAGTGATACCAGCATCGTCTTGATGCCCTTGGCAGCACTGCTGACGAGTCCCAAATAGGACGAAACGCGC | 1.2
RA217 (nucleic acid, expressed or natural sequence) DNA: GCGCGTCCTGGATTCCGAGAATACCAGCATCGTCTTGATGCCCTTGGAAGTCTCGGCGGAAACGCGTACATCCAGCTGACGAGTCCCAAATAGGACGAAACGCGC | 1.2
RA216 (nucleic acid, expressed or natural sequence) DNA: GCGCGTCCTGGATTCGCGGAAACGCGTACATCCAGCTGACGAGTCAGTGATACCAGCATCGTCTTGATGCCCTTGGCAGCACTCCAAATAGGACGAAACGCGC | 1.2
RA214 (nucleic acid, expressed or natural sequence) DNA: GCGCGTCCTGGATTCGCGAGAATACCAGCATCGTCTTGATGCCCTTGGAAGTCTCGGAAACGCGTACATCCAGCTGACGAGTCCCAAATAGGACGAAACGCGC | 1.2
RA219 (nucleic acid, expressed or natural sequence) DNA: GCGCGTCCTGGATTCGCGGAAACGCGTACATCCAGCGGAATACCAGCATCGTCTTGATGCCCTTGGAAGTCCTGACGAGTCCCAAATAGGACGAAACGCGC | 1.2
RA221 (nucleic acid, expressed or natural sequence) DNA: GCGCGTCCTGGATTCGCGGAAACGCGTACATCCAGCTGACGGAATACCAGCATCGTCTTGATGCCCTTGGAAGTCCGCGAGTCCCAAATAGGACGAAACGCGC | 1.2
RA213 (nucleic acid, expressed or natural sequence) DNA: GCGCGTCCTGGATTCGCGGAAACGCGTACATCCAGCTCGAGAATACCAGCATCGTCTTGATGCCCTTGGAAGTCTCGGACGAGTCCCAAATAGGACGAAACGCGC | 1.2
RA021 (nucleic acid, expressed or natural sequence) DNA: GCGCGTCCTGGATTCGCGGAAACGCGTACATCCAGCTGACGAGTCCCAAATAGAGTGATACCAGCATCGTCTTGATGCCCTTGGCAGCACTGACGAAACGCGC | 2.7
